According to US20150346192A1:

Tests used:
[1] = molecular target: hypothetical protein LOC297607 (rat) (UniProt D4A770); test: IP of RBL-2H3 lysate on nickel beads, MS/MS ProtScore; 1st of 3 experiments
[2] = molecular target: hypothetical protein LOC297607 (rat) (UniProt D4A770); test: IP of RBL-2H3 lysate on nickel beads, MS/MS ProtScore; 2nd of 3 experiments
[3] = molecular target: hypothetical protein LOC297607 (rat) (UniProt D4A770); test: IP of RBL-2H3 lysate on nickel beads, MS/MS ProtScore; 3rd of 3 experiments

Sequence of hypothetical protein LOC297607 (rat) (D4A770 whole entry): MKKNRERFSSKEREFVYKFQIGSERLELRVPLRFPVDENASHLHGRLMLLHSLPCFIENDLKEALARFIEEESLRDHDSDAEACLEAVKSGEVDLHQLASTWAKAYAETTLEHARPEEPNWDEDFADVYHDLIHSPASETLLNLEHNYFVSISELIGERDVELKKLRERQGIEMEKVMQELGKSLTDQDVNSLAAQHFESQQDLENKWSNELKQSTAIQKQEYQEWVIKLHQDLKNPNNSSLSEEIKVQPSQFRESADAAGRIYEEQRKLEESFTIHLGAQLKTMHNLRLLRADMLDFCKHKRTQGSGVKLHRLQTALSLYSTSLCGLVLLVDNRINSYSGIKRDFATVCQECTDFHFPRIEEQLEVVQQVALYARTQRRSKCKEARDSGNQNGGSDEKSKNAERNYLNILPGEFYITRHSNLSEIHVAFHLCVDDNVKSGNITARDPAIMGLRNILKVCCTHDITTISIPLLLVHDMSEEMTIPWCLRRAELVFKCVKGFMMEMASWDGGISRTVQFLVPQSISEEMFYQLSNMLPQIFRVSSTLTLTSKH

Protscore IP [1]: 0 | Protscore IP [2]: 0 | Protscore IP [3]: 2
Substance: irrelevant VH
